From article PMC5294574, “Stoichiometry and structure of a lantibiotic maturation complex” (Scientific Reports, 2017)
Blank lines part the entries; values can stand above or below the molecule they belong to.

Experiments:
[1] = molecular target: NisB (lantibiotic dehydratase) (Lactococcus lactis) (UniProt P20103); assay: SEC-MALS; 20 μM NisB and 200 μM prenisin peptide variant kept constant, NisC varied from 10 μM to 160 μM; 50 mM HEPES-NaOH, pH 7.5, 500 mM NaCl
[2] = molecular target: NisC (lantibiotic cyclase) (Lactococcus lactis) (UniProt Q03202); assay: as above
[3] = molecular target: NisB (lantibiotic dehydratase) (Lactococcus lactis) (UniProt P20103); assay: SEC-MALS; 20 μM NisC or 20 μM NisB incubated with 200 μM unmodified prenisin peptide for 1 h at 25 °C; 50 mM HEPES-NaOH, pH 7.5, 500 mM NaCl
[4] = molecular target: NisC (lantibiotic cyclase) (Lactococcus lactis) (UniProt Q03202); assay: as above
[5] = molecular target: the molecule itself; assay: SEC-MALS; isolated NisB or NisC, 200 μL of a 20 μM solution; 50 mM HEPES-NaOH, pH 7.5, 500 mM NaCl

Sequence of NisC (lantibiotic cyclase) (Lactococcus lactis) (Q03202 whole entry): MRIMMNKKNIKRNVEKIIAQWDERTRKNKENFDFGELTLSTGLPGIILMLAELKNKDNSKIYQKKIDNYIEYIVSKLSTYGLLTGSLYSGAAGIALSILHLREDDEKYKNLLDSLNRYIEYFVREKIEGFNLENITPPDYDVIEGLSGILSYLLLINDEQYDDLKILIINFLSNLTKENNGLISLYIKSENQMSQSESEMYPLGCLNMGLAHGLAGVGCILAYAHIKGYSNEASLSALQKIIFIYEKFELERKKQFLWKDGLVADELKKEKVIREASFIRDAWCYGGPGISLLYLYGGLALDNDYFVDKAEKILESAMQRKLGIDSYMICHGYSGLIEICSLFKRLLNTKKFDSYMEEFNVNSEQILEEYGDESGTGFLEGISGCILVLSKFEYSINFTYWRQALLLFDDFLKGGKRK

stoichiometry N (prenisin per NisB dimer) [1]: 1
stoichiometry N (prenisin per NisC monomer) [2]: 1
stoichiometry N (per NisB dimer) [3]: 1
stoichiometry N (per NisC monomer) [4]: 1
Molecule: unmodified prenisin peptide

B1: NisB (lantibiotic dehydratase) (enzyme, Lactococcus lactis)
chain: MIKSSFKAQPFLVRNTILCPNDKRSFTEYTQVIETVSKNKVFLEQLLLANPKLYDVMQKYNAGLLKKKRVKKLFESIYKYYKRSYLRSTPFGLFSETSIGVFSKSSQYKLMGKTTKGIRLDTQWLIRLVHKMEVDFSKKLSFTRNNANYKFGDRVFQVYTINSSELEEVNIKYTNVYQIISEFCENDYQKYEDICETVTLCYGDEYRELSEQYLGSLIVNHYLISNLQKDLLSDFSWNTFLTKVEAIDEDKKYIIPLKKVQKFIQEYSEIEIGEGIEKLKEIYQEMSQILENDNYIQIDLISDSEINFDVKQKQQLEHLAEFLGNTTKSVRRTYLDDYKDKFIEKYGVDQEVQITELFDSTFGIGAPYNYNHPRNDFYESEPSTLYYSEEEREKYLSMYVEAVKNHNVINLDDLESHYQKMDLEKKSELQGLELFLNLAKEYEKDIFILGDIVGNNNLGGASGRFSALSPELTSYHRTIVDSVERENENKEITSCEIVFLPENIRHANVMHTSIMRRKVLPFFTSTSHNEVLLTNIYIGIDEKEKFYARDISTQEVLKFYITSMYNKTLFSNELRFLYEISLDDKFGNLPWELIYRDFDYIPRLVFDEIVISPAKWKIWGRDVNSKMTIRELIQSKEIPKEFYIVNGDNKVYLSQKNPLDMEILESAIKKSSKRKDFIELQEYFEDENIINKGEKGRVADVVVPFIRTRALGNEGRAFIREKRVSVERREKLPFNEWLYLKLYISINRQNEFLLSYLPDIQKIVANLGGNLFFLRYTDPKPHIRLRIKCSDLFLAYGSILEILKRSRKNRIMSTFDISIYDQEVERYGGFDTLELSEAIFCADSKIIPNLLTLIKDTNNDWKVDDVSILVNYLYLKCFFQNDNKKILNFLNLVSTKKVKENVNEKIEHYLKLLKVNNLGDQIFYDKNFKELKHAIKNLFLKMIAQDFELQKVYSIIDSIIHVHNNRLIGIERDKEKLIYYTLQRLFVSEEYMK
notes: Nisin dehydratase NisB of Lactococcus lactis; theoretical molecular weight of the dimer 236.6 kDa; Dimer by MALS-SEC and SAXS; also called dehydratase NisB; apo-NisB; source: L. lactis NZ9000, homologously expressed, purified (IMAC, SEC)
stoichiometry N [5]: 2
